# Reference: the supplement of paper PMC9112550, “Optimization of the antimicrobial peptide Bac7 by deep mutational scanning” (BMC Biology, 2022)
# System: Escherichia coli TOP10
# Assay: shrunken log2 fold change of peptide-encoding DNA abundance (4.5 h post-induction vs induction); higher = less antimicrobial activity (less host growth inhibition)
# Details: time post-induction: 4.5 h; library: site-saturation at positions 5, 18, 19, 20
# 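Further: peptides expressed intracellularly from a pBAD plasmid library in pooled LB shake-flask culture, induced with 0.3% L-arabinose, DNA abundance read by NGS, three biological replicates, DESeq2 with apeglm shrinkage.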
row,Sequence,shrunken log2 fold change
1,RRIRFRPPRLPRPRPRPWHQPRP,-0.338
2,RRIRARPPRLPRPRPRPGRLPRP,0.895
3,RRIRCRPPRLPRPRPRPETIPRP,-0.0356
4,RRIRWRPPRLPRPRPRPRNHPRP,-0.141
5,RRIRCRPPRLPRPRPRPDKHPRP,-0.333
6,RRIRDRPPRLPRPRPRPKFKPRP,-0.0689
7,RRIRKRPPRLPRPRPRPHATPRP,1.06
8,RRIRGRPPRLPRPRPRPKKFPRP,0.582
9,RRIRARPPRLPRPRPRPALEPRP,1.19
10,RRIRCRPPRLPRPRPRPFYLPRP,-0.564
11,RRIRERPPRLPRPRPRPCHNPRP,-0.0168
12,RRIRERPPRLPRPRPRPPSQPRP,-0.213
13,RRIRNRPPRLPRPRPRPITWPRP,-0.0587
14,RRIRMRPPRLPRPRPRPTFLPRP,-0.319
15,RRIRARPPRLPRPRPRPYCSPRP,0.0743
16,RRIRIRPPRLPRPRPRPMVRPRP,-0.0105
17,RRIRWRPPRLPRPRPRPVFVPRP,-0.0738
18,RRIRVRPPRLPRPRPRPFQHPRP,-0.131
19,RRIRDRPPRLPRPRPRPHKNPRP,-0.296
20,RRIRNRPPRLPRPRPRPFPWPRP,-0.084
21,RRIRARPPRLPRPRPRPECHPRP,1.38
22,RRIRHRPPRLPRPRPRPRRSPRP,0.0555
23,RRIRSRPPRLPRPRPRPYELPRP,0.093
24,RRIRERPPRLPRPRPRPISDPRP,0.00346
25,RRIRLRPPRLPRPRPRPGNRPRP,-1.09

row,Sequence,shrunken log2 fold change
1,RRIRERPPRLPRPRPRPHTEPRP,-0.239
2,RRIRVRPPRLPRPRPRPMEEPRP,0.215
3,RRIRPRPPRLPRPRPRPDTIPRP,-0.247
4,RRIRRRPPRLPRPRPRPYAHPRP,0.082
5,RRIRERPPRLPRPRPRPHHFPRP,-0.0117
6,RRIRWRPPRLPRPRPRPRNYPRP,-0.169
7,RRIRYRPPRLPRPRPRPHVAPRP,-0.312
8,RRIRMRPPRLPRPRPRPRIHPRP,0.0221
9,RRIRERPPRLPRPRPRPVVYPRP,-0.945
10,RRIRVRPPRLPRPRPRPLYYPRP,-0.453
11,RRIRDRPPRLPRPRPRPYGCPRP,0.141
12,RRIRLRPPRLPRPRPRPMTAPRP,0.0114
13,RRIRYRPPRLPRPRPRPCNHPRP,-0.213
14,RRIRIRPPRLPRPRPRPIICPRP,-0.775
15,RRIRERPPRLPRPRPRPMISPRP,-0.11
16,RRIRCRPPRLPRPRPRPNKMPRP,-0.393
17,RRIRTRPPRLPRPRPRPCKAPRP,-0.00146
18,RRIRARPPRLPRPRPRPSMDPRP,1.4
19,RRIRHRPPRLPRPRPRPDLAPRP,0.0081
20,RRIRPRPPRLPRPRPRPAHGPRP,0.708
21,RRIRERPPRLPRPRPRPFDTPRP,-0.267
22,RRIRYRPPRLPRPRPRPNWFPRP,-0.892
23,RRIRIRPPRLPRPRPRPSVQPRP,-0.51
24,RRIRERPPRLPRPRPRPTAPPRP,-0.043
25,RRIRMRPPRLPRPRPRPFNKPRP,-0.52

row,Sequence,shrunken log2 fold change
1,RRIRVRPPRLPRPRPRPHQNPRP,-0.296
2,RRIRRRPPRLPRPRPRPNDCPRP,0.264
3,RRIRMRPPRLPRPRPRPNAQPRP,0.43
4,RRIRIRPPRLPRPRPRPPTFPRP,-0.166
5,RRIRERPPRLPRPRPRPANVPRP,-0.0342
6,RRIRDRPPRLPRPRPRPLWLPRP,0.399
7,RRIRTRPPRLPRPRPRPPHVPRP,0.307
8,RRIRPRPPRLPRPRPRPWLEPRP,-0.0732
9,RRIRPRPPRLPRPRPRPNIKPRP,-0.322
10,RRIRPRPPRLPRPRPRPFDQPRP,-0.295
11,RRIRERPPRLPRPRPRPFPYPRP,-0.256
12,RRIRYRPPRLPRPRPRPWPWPRP,0.0314
13,RRIRCRPPRLPRPRPRPTTEPRP,0.419
14,RRIRGRPPRLPRPRPRPWPTPRP,0.233
15,RRIRCRPPRLPRPRPRPIWNPRP,-0.343
16,RRIRNRPPRLPRPRPRPSACPRP,-0.0258
17,RRIRFRPPRLPRPRPRPSEQPRP,-0.217
18,RRIRQRPPRLPRPRPRPQHWPRP,0.0488
19,RRIRERPPRLPRPRPRPCAYPRP,-1.05
20,RRIRKRPPRLPRPRPRPLHSPRP,0.0787
21,RRIRGRPPRLPRPRPRPLSFPRP,0.121
22,RRIRSRPPRLPRPRPRPTASPRP,0.116
23,RRIRTRPPRLPRPRPRPQQYPRP,-0.0717
24,RRIRVRPPRLPRPRPRPFRTPRP,-0.0962
25,RRIRIRPPRLPRPRPRPKMMPRP,-0.596

row,Sequence,shrunken log2 fold change
1,RRIRNRPPRLPRPRPRPRPCPRP,0.0913
2,RRIRFRPPRLPRPRPRPKIMPRP,-0.624
3,RRIRCRPPRLPRPRPRPWYDPRP,-0.0194
4,RRIRQRPPRLPRPRPRPKHFPRP,-0.0231
5,RRIRYRPPRLPRPRPRPEKVPRP,-0.241
6,RRIRCRPPRLPRPRPRPGPRPRP,0.713
7,RRIRNRPPRLPRPRPRPVFSPRP,-0.192
8,RRIRVRPPRLPRPRPRPPHLPRP,-0.0283
9,RRIRNRPPRLPRPRPRPIEHPRP,-0.307
10,RRIRCRPPRLPRPRPRPGNTPRP,-0.205
11,RRIRGRPPRLPRPRPRPPNHPRP,0.942
12,RRIRTRPPRLPRPRPRPSDNPRP,-0.697
13,RRIRIRPPRLPRPRPRPIHKPRP,-0.782
14,RRIRTRPPRLPRPRPRPLMWPRP,-0.151
15,RRIRRRPPRLPRPRPRPHQNPRP,0.769
16,RRIRKRPPRLPRPRPRPKKWPRP,0.406
17,RRIRIRPPRLPRPRPRPWVMPRP,-0.152
18,RRIRDRPPRLPRPRPRPVNGPRP,-0.0115
19,RRIRGRPPRLPRPRPRPTFQPRP,0.59
20,RRIRRRPPRLPRPRPRPSCNPRP,-0.112
21,RRIRTRPPRLPRPRPRPVDFPRP,0.231
22,RRIRSRPPRLPRPRPRPSKHPRP,-0.461
23,RRIRIRPPRLPRPRPRPSMQPRP,-0.221
24,RRIRPRPPRLPRPRPRPERCPRP,0.271
25,RRIRLRPPRLPRPRPRPMWEPRP,0.00629

row,Sequence,shrunken log2 fold change
1,RRIRMRPPRLPRPRPRPFKEPRP,-0.00865
2,RRIRFRPPRLPRPRPRPRFHPRP,-0.409
3,RRIRVRPPRLPRPRPRPKGTPRP,-0.171
4,RRIRGRPPRLPRPRPRPMIEPRP,0.953
5,RRIRKRPPRLPRPRPRPLWKPRP,-0.206
6,RRIRKRPPRLPRPRPRPFPKPRP,0.169
7,RRIRQRPPRLPRPRPRPNVPPRP,-0.0402
8,RRIRDRPPRLPRPRPRPTARPRP,0.546
9,RRIRGRPPRLPRPRPRPCEPPRP,0.241
10,RRIRKRPPRLPRPRPRPTPYPRP,0.235
11,RRIRHRPPRLPRPRPRPPHVPRP,0.16
12,RRIRQRPPRLPRPRPRPRTFPRP,-0.471
13,RRIRHRPPRLPRPRPRPSRAPRP,0.373
14,RRIRVRPPRLPRPRPRPDVHPRP,-0.159
15,RRIRARPPRLPRPRPRPKLTPRP,0.167
16,RRIRKRPPRLPRPRPRPMYVPRP,-0.0793
17,RRIRCRPPRLPRPRPRPWEAPRP,0.0139
18,RRIRWRPPRLPRPRPRPAGGPRP,0.379
19,RRIRNRPPRLPRPRPRPIRPPRP,-0.00213
20,RRIRFRPPRLPRPRPRPKRIPRP,-0.442
21,RRIRHRPPRLPRPRPRPENTPRP,0.0466
22,RRIRYRPPRLPRPRPRPNIRPRP,0.0146
23,RRIRTRPPRLPRPRPRPAQAPRP,-0.0199
24,RRIRNRPPRLPRPRPRPDRLPRP,-0.038
25,RRIRARPPRLPRPRPRPEYCPRP,0.409

row,Sequence,shrunken log2 fold change
1,RRIRWRPPRLPRPRPRPPSTPRP,0.402
2,RRIRARPPRLPRPRPRPRGCPRP,0.822
3,RRIRLRPPRLPRPRPRPEEYPRP,0.0401
4,RRIRIRPPRLPRPRPRPFNDPRP,-0.0749
5,RRIRMRPPRLPRPRPRPHLHPRP,-0.301
6,RRIRIRPPRLPRPRPRPPMLPRP,-0.382
7,RRIRQRPPRLPRPRPRPDFAPRP,-0.0596
8,RRIRLRPPRLPRPRPRPIQDPRP,-0.105
9,RRIRCRPPRLPRPRPRPWFSPRP,-0.208
10,RRIRFRPPRLPRPRPRPVFCPRP,-0.0281
11,RRIRSRPPRLPRPRPRPYPDPRP,-0.172
12,RRIRYRPPRLPRPRPRPVGTPRP,0.238
13,RRIRGRPPRLPRPRPRPLHWPRP,0.627
14,RRIRWRPPRLPRPRPRPSDMPRP,-0.354
15,RRIRLRPPRLPRPRPRPLHRPRP,-0.226
16,RRIRTRPPRLPRPRPRPTVVPRP,0.0732
17,RRIRLRPPRLPRPRPRPSNCPRP,-0.581
18,RRIRVRPPRLPRPRPRPKYFPRP,-0.239
19,RRIRLRPPRLPRPRPRPENQPRP,-0.0987
20,RRIRSRPPRLPRPRPRPGCYPRP,-0.173
21,RRIRDRPPRLPRPRPRPSNKPRP,-0.325
22,RRIRQRPPRLPRPRPRPYMTPRP,-0.122
23,RRIRDRPPRLPRPRPRPVQRPRP,0.121
24,RRIRNRPPRLPRPRPRPSCDPRP,-0.179
25,RRIRGRPPRLPRPRPRPGFWPRP,0.581
